# According to patent publication US20100255485A1, “BIOMARKERS FOR THE ONSET OF NEURODEGENERATIVE DISEASES” (priority 2007, published 2010):
# B1: cardiotrophin-1: cytokine present in embryonic muscle (protein, UniProt Q16619 1-201, looked up)
# Cardiotrophin-1: MSRREGSLEDPQTDSSVSLLPHLEAKIRQTHSLAHLLTKYAEQLLQEYVQLQGDPFGLPSFSPPRLPVAGLSAPAPSHAGLPVHERLRLDAAALAALPPLLDAVCRRQAELNPRAPRLLRRLEDAARQARALGAAVEALLAALGAANRGPRAEPPAATASAASATGVFPAKVLGLRVCGLYREWLSRTEGDLGQLLPGGSA
# B2: BDNF: member of the neurotrophin family (protein, UniProt P23560 19-247, looked up)
# Neurotrophic factor BDNF …: APMKEANIRGQGGLAYPGVRTHGTLESVNGPKAGSRGLTSLADTFEHVIEELLDEDQKVRPNEENNKDADLYTSRVMLSSQVPLEPPLLFLLEEYKNYLDAANMSMRVRRHSDPARRGELSVCDSISEWVTAADKKTAVDMSGGTVTVLEKVPVSKGQLKQYFYETKCNPMGYTKEGCRGIDKRHWNSQCRTTQSYVRALTMDSKKRIGWRFIRIDTSCVCTLTIKRGR
# B3: GDNF: neurotrophic factor (protein, UniProt P39905 78-211, looked up)
# Glial cell line-derived …: SPDKQMAVLPRRERNRQAAAANPENSRGKGRRGQRGKNRGCVLTAIHLNVTDLGLGYETKEELIFRYCSGSCDAAETTYDKILKNLSRNRRLVSDKVGQACCRPIAFDDDLSFLDDNLVYHILRKHSAKRCGCI
# B4: NT-4: member of the neurotrophin family (protein, UniProt P34130 81-210, looked up)
# Neurotrophin-4: GVSETAPASRRGELAVCDAVSGWVTDRRTAVDLRGREVEVLGEVPAAGGSPLRQYFFETRCKADNAEEGGPGAGGGGCRGVDRRHWVSECKAKQSYVRALTADAQGRVGWRWIRIDTACVCTLLSRTGRA
# B5: CNTF: CNTF rat recombinant protein (Sigma Aldrich); specific stress-protecting factor (protein, UniProt P20294 1-200, looked up)
# Ciliary neurotrophic factor: MAFAEQTPLTLHRRDLCSRSIWLARKIRSDLTALMESYVKHQGLNKNINLDSVDGVPVASTDRWSEMTEAERLQENLQAYRTFQGMLTKLLEDQRVHFTPTEGDFHQAIHTLMLQVSAFAYQLEELMVLLEQKIPENEADGMPATVGDGGLFEKKLWGLKVLQELSQWTVRSIHDLRVISSHQMGISALESHYGAKDKQM
# B6: NT-3: member of the neurotrophin family (protein, UniProt P20783 139-257, looked up)
# Neurotrophin-3: YAEHKSHRGEYSVCDSESLWVTDKSSAIDIRGHQVTVLGEIKTGNSPVKQYFYETRCKEARPVKNGCRGIDDKHWNSQCKTSQTYVRALTSENNKLVGWRWIRIDTSCVCALSRKIGRT
# Key:
# [1] = system: embryonic motor neuron; settings: cited from earlier work
# [2] = system: SOD1(G93A) mice; test: Intramuscular Salubrinal into one hindlimb of SOD1(G93A) mice: ER stress, UPR, microglia activation, neuromuscular junctions; format: in vivo
# [3] = system: motoneurons; settings: in vivo; cited from earlier work
# [4] = system: murine models of inherited progressive motor degeneration; settings: CNTF and/or BDNF; cited from earlier work
# [5] = system: SOD1(G93A) mice; test: Intramuscular CNTF in SOD1(G93A) mice: stress responses in VUL MNs and microglia activation; format: in vivo
# [6] = system: SOD1(G93A) mice; settings: intramuscular applications of CNTF; stated as known effect; cited from earlier work
# [7] = early treatment P14 until P32, analyzed at P39
# [8] = early treatment P14 until P32, analyzed at P53
# [9] = late treatment P39 until P50, analyzed at P53
# [10] = CNTF intramuscular from P28 to P40
molecule,measurement,setting,value
IGF-1: neurotrophic factor,embryonic motor neuron survival in culture,[1],enhanced
LIF: cytokine,embryonic motor neuron survival in culture,[1],enhanced
O=C(/C=C/c1ccccc1)NC(NC(=S)Nc1cccc2cccnc12)C(Cl)(Cl)Cl (centres unmarked) [Salubrinal],disease process during the Salubrinal treatments,[2]; early and late treatments taken together,partially reversed
same,disease process during administration,[2]; early treatment P14 until P32,effectively arrested
same,UPR,[2]; [7],no evidence of a UPR
same,microglia activation,[2]; [7],no microglia activation
same,levels of BiP,"[2]; early treatment P14 until P32, analyzed at P39 (7 days after discontinuation)",low levels
same,loss of synaptic vesicles at neuromuscular junctions,[2]; [8],no loss
same,microglia activation,[2]; [8],mild microglia activation
same,UPR,"[2]; early treatment P14 until P32, analyzed at P53 (21 days after discontinuation)",early signs of a UPR
same,UPR,[2]; [9],mild UPR
same,loss of neuromuscular junction synaptic vesicles,[2]; [9],no loss
same,microglia activation,[2]; [9],mild microglia activation
B1,embryonic motor neuron survival in culture,[1],enhanced
same,motoneuronal death occurring naturally during embryonic development,[3],reduction
B2,embryonic motor neuron survival in culture,[1],enhanced
same,motoneuronal death occurring naturally during embryonic development,[3],reduction
same,protective effect in two murine models of inherited progressive motor degeneration,[4],protective effect
B3,embryonic motor neuron survival in culture,[1],enhanced
same,motoneuronal death occurring naturally during embryonic development,[3],reduction
B4,embryonic motor neuron survival in culture,[1],enhanced
B5,upregulation of BiP in VUL MNs,"[5]; CNTF intramuscular from P20 to P28, before disease onset",completely prevented
same,UPR/UPS reaction,[5]; [10],effectively prevented
same,VUL MN BiP and Pi-elF2a signals,[5]; [10],normalized
same,activation of microglia on the spinal cord side ipsilateral to the treatment,[5]; [10],reduced
same,downregulation of stress-related protective pathways in VUL MNs,[5]; [10],counteracted
same,axonal pathology in VUL MNs,[6],effectively attenuates
same,disease progression,[6],slows
same,embryonic motor neuron survival in culture,[1],enhanced
same,motoneuronal death occurring naturally during embryonic development,[3],reduction
same,protective effect in two murine models of inherited progressive motor degeneration,[4],protective effect
B6,embryonic motor neuron survival in culture,[1],enhanced
